Experimental findings from US20150065381A1 are described below.

Assay [1] concerns the target BG505 envelope (gp120 monomer released from lysed pseudovirus) (HIV-1). Kind of assay: antigen capture ELISA, mAb 7.5 ug/ml, plate 2. In general terms: ELISA stands for enzyme-linked immunosorbent assay.
Assay [2] has as its target aMLV envelope (from lysed pseudovirus). The assay is described as follows: antigen capture ELISA, mAb 7.5 ug/ml, plate 2.
Assay [3] has as its target HIV-1 envelope of gp160 clone AG-010.c11 (HIV-1). Kind of assay: capture ELISA, plate 1, mAb 2.5 ug/ml.
Assay [4] has as its target HIV-1 envelope clone G-011.c05 (multiclade gp160 clone panel) (HIV-1). Kind of assay: capture ELISA, plate 1, mAb 2.5 ug/ml.
In assay [5] the target is HIV-1 envelope of gp160 clone B-Acute-010.c09 (HIV-1). Kind of assay: capture ELISA, plate 1, mAb 2.5 ug/ml.
Assay [6] deals with HIV-1 envelope of gp160 clone B-Acute-008.c11 (HIV-1). Kind of assay: capture ELISA, plate 1, mAb 2.5 ug/ml.
Assay [7] addresses HIV-1 JRFL envelope (HIV-1). Kind of assay: capture ELISA, plate 1, mAb 2.5 ug/ml.
Assay [8] has as its target JRFL envelope (gp120 monomer released from lysed pseudovirus) (HIV-1) (UniProt P20871). The assay is described as follows: antigen capture ELISA, mAb 2.5 ug/ml, plate 2.
The target of assay [9] is 16055 envelope (gp120 monomer released from lysed pseudovirus) (HIV-1). Kind of assay: antigen capture ELISA, mAb 2.5 ug/ml, plate 2.
Assay [10] deals with JRFL envelope (gp120 monomer released from lysed pseudovirus) (HIV-1) (UniProt P20871). The assay is described as follows: antigen capture ELISA, mAb 7.5 ug/ml, plate 2.
The target in assay [11] is 16055 envelope (gp120 monomer released from lysed pseudovirus) (HIV-1). The assay is described as follows: antigen capture ELISA, mAb 7.5 ug/ml, plate 2.
Assay [12] addresses JRFL envelope (gp120 monomer released from lysed pseudovirus) (HIV-1) (UniProt P20871). Kind of assay: antigen capture ELISA, mAb 0.3 ug/ml, plate 1.
Assay [13] has as its target 16055 envelope (gp120 monomer released from lysed pseudovirus) (HIV-1). The assay is described as follows: antigen capture ELISA, mAb 0.3 ug/ml, plate 1.
In assay [14] the target is JRFL envelope (gp120 monomer released from lysed pseudovirus) (HIV-1) (UniProt P20871). The assay is described as follows: antigen capture ELISA, mAb 0.8 ug/ml, plate 2.
The target in assay [15] is 16055 envelope (gp120 monomer released from lysed pseudovirus) (HIV-1). Kind of assay: antigen capture ELISA, mAb 0.8 ug/ml, plate 2.
In assay [16] the target is JRFL envelope (gp120 monomer released from lysed pseudovirus) (HIV-1) (UniProt P20871). Kind of assay: antigen capture ELISA, mAb 0.8 ug/ml, plate 1.
For assay [17], the target named is 16055 envelope (gp120 monomer released from lysed pseudovirus) (HIV-1). Kind of assay: antigen capture ELISA, mAb 0.8 ug/ml, plate 1.
Assay [18] has as its target JRFL envelope (gp120 monomer released from lysed pseudovirus) (HIV-1) (UniProt P20871). The assay is described as follows: antigen capture ELISA, mAb 0.3 ug/ml, plate 2.
Assay [19] has as its target 16055 envelope (gp120 monomer released from lysed pseudovirus) (HIV-1). Kind of assay: antigen capture ELISA, mAb 0.3 ug/ml, plate 2.
Assay [20] concerns the target HIV-1 envelope clone BF-002.c05 (multiclade gp160 clone panel) (HIV-1). Kind of assay: capture ELISA, plate 1, mAb 2.5 ug/ml.
The target of assay [21] is HIV-1 envelope clone F1-002.c16 (multiclade gp160 clone panel) (HIV-1). The assay is described as follows: capture ELISA, plate 1, mAb 2.5 ug/ml.
Assay [22] addresses HIV-1 envelope of gp160 clone B-Acute-009-c08 (HIV-1). The assay is described as follows: capture ELISA, original data.
In assay [23] the target is JRFL envelope (gp120 monomer released from lysed pseudovirus) (HIV-1) (UniProt P20871). The assay is described as follows: antigen capture ELISA, mAb 7.5 ug/ml, plate 1.
The target in assay [24] is 16055 envelope (gp120 monomer released from lysed pseudovirus) (HIV-1). Kind of assay: antigen capture ELISA, mAb 7.5 ug/ml, plate 1.
Assay [25] concerns the target JRFL envelope (gp120 monomer released from lysed pseudovirus) (HIV-1) (UniProt P20871). The assay is described as follows: antigen capture ELISA, mAb 2.5 ug/ml, plate 1.
In assay [26] the target is 16055 envelope (gp120 monomer released from lysed pseudovirus) (HIV-1). The assay is described as follows: antigen capture ELISA, mAb 2.5 ug/ml, plate 1.

Values joined by “and” are separate entries in the source; they are usually repeats but may differ in a detail not shown here. Identical values can stand only once.

With PG9 (antibody), the ELISA OD is 0.428 OD in assay [1]; 0.079 OD and 0.071 OD in [2]; 0.759 OD in assay [3]; 0.308 OD in assay [4]; 0.133 OD in assay [5]; 0.281 OD in assay [6]. For the same substance, the ELISA OD in assay [7] was 0.068 OD and 0.077 OD.

Regarding PG16 (antibody), the ELISA OD was 0.081 OD and 0.096 OD in assay [8]; 0.195 OD and 0.122 OD in assay [9]; 0.12 OD in assay [1]; 0.111 OD and 0.136 OD in assay [10]; 0.102 OD and 0.081 OD in assay [2]; 0.155 OD and 0.143 OD in [11]. Moreover, the ELISA OD is 0.063 OD and 0.097 OD in [12]; 0.101 OD and 0.122 OD in assay [13]; 0.063 OD and 0.061 OD in assay [14]; 0.156 OD and 0.105 OD in assay [15]; 0.064 OD and 0.071 OD in assay [16]; 0.129 OD and 0.11 OD in assay [17]. Also, the ELISA OD is 0.065 OD and 0.075 OD in assay [18]; 0.107 OD and 0.112 OD in assay [19]; 0.639 OD in assay [20]; 0.216 OD in assay [3]; 0.126 OD in assay [4]; 0.124 OD in assay [5]. Besides, the ELISA OD was 0.189 OD in [6]; 0.085 OD and 0.088 OD in assay [7]; 0.129 OD in [21].

For the substance PGT145 (antibody), the ELISA OD in assay [22] is 0.219 OD; in assay [1], 0.104 OD; in assay [2], 0.108 OD and 0.079 OD; in assay [20], 0.22 OD; in [3] it was 0.06 OD; in assay [4], 0.087 OD. Moreover, the ELISA OD in assay [5] was determined as 0.068 OD; in assay [6], 0.101 OD; in [7] it was 0.06 OD; in [21], 0.316 OD.

On to PGT151 (antibody), for which the ELISA OD is 0.264 OD in assay [22]; 0.094 OD in assay [1]; 0.114 OD and 0.116 OD in assay [2]; 0.148 OD in [20]; 0.062 OD in assay [3]; 0.073 OD in [4]. Moreover, the ELISA OD was 0.06 OD in assay [5]; 0.152 OD in assay [6]; 0.078 OD and 0.06 OD in [7]; 0.081 OD in assay [21].

Turning to PGV04 (antibody), the ELISA OD in assay [23] is 1.94 OD and 1.84 OD; in [24], 0.071 OD and 0.068 OD; in assay [8], 1.55 OD and 1.51 OD; in [9] it was 0.126 OD and 0.095 OD; in assay [25], 1.17 OD and 1.25 OD; in assay [26] it was 0.066 OD and 0.071 OD. In addition, the ELISA OD was 1.37 OD in [1]; 2.49 OD and 2.36 OD in [10]; 0.123 OD in assay [2]; 0.108 OD and 0.113 OD in assay [11]; 0.344 OD and 0.34 OD in assay [12]; 0.054 OD and 0.065 OD in assay [13]. Also, the ELISA OD in assay [14] is 0.796 OD and 0.763 OD; in assay [15] it was 0.073 OD and 0.071 OD; in [16], 0.673 OD and 0.722 OD; in assay [17] it was 0.055 OD and 0.059 OD; in assay [18], 0.395 OD and 0.44 OD; in assay [19], 0.079 OD and 0.122 OD. Besides, the ELISA OD came out at 4 OD in assay [20]; 0.136 OD in assay [3]; 0.256 OD in assay [4]; 1.73 OD in [5]; 0.059 OD in [6]; 0.242 OD in assay [21].
